The text below walks through data of patent US20150004189A1 (published 2015).

As usually defined, the IC50 is the concentration that inhibits the measured activity by half. Higher therefore signals lower potency.

Where a chain is given by its changes, count along the chain named.

In experiment [1] the target is HLA DQ molecule DQB1*0503 (human). The experiment in a line: inhibition of radiolabeled peptide binding to purified HLA DQ.
Experiment [2] has as its target HLA DQ molecule DQB1*0502 (human). Described as above.
Experiment [3] deals with HLA DQ molecule DQB1*0202 (human). Described as above.
Experiment [4] deals with T1, HLA DP molecule DPB1*0201 (human).
T1 chain 1: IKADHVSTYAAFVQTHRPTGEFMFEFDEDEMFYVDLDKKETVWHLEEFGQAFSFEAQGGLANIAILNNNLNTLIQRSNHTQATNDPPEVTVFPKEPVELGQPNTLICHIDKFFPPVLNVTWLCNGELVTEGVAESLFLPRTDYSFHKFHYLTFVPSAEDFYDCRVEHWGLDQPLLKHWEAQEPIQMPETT
T1 chain 2: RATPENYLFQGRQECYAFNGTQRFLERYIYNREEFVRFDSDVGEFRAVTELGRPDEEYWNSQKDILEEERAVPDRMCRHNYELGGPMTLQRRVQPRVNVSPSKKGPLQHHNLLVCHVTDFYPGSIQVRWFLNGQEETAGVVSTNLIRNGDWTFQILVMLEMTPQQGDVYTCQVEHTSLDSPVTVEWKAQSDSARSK
The experiment in a line: competition vs radiolabeled peptide, purified HLA-DP.

Experiment [5] has as its target T2, HLA DP molecule DPB1*0401 (human).
T2 chain 1: T1 chain 1
T2 chain 2: T1 chain 2 with V36A, D55A, E56A, E69K
The experiment is described as above.

For experiment [6], the target named is T3, HLA-DP molecule DPB1*0401 (human).
T3 chain 1: T1 chain 1
T3 chain 2: T1 chain 2 with V36A, D55A, E56A, E69K
The experiment in a line: inhibition of radiolabeled peptide binding to purified HLA-DP.

In experiment [7] the target is HLA-DP molecule DPB1*2001 (human). The experiment is described as above.
Experiment [8] concerns the target HLA DQ molecule DQB1*0602 (human). The experiment in a line: inhibition of radiolabeled peptide binding to purified HLA DQ.
Experiment [9] has as its target HLA DQ molecule DQB1*0502 (human). The experiment can be described thus: inhibition of radiolabeled peptide binding to purified HLA class II.
Experiment [10] has as its target HLA DQ molecule DQB1*0503 (human). The description is as above.
Experiment [11] concerns the target HLA DQ molecule DQB1*0202 (human). The experiment is described as above.
Experiment [12] deals with HLA DQ molecule DQB1*0602 (human). The experiment is described as above.
Experiment [13] has as its target HLA-DP molecule DPB1*1401 (human). The experiment in a line: inhibition of radiolabeled peptide binding to purified HLA-DP.

With EGTVDFIFGEARSLY [Sal k 1 1 peptide, position 191 (Peptide ID 3324.1590)], the results for the 50% inhibitory concentration (IC50) in experiment [1], in experiment [2] and in [3] were 2360 nM, 6850 nM and 3120 nM, respectively.
As for DEYVEQVAQYKALPV [Fel d 1 1 peptide, position 41, DEYVEQVAQYKALPV (Peptide ID 3324.1049)], the IC50 is 1120 nM in experiment [4] and 533 nM in experiment [5].
As for FKAAVAAAAGAPPAD [Poa p 5 peptide, position 61, FKAAVAAAAGAPPAD (Peptide ID 3324.1575)], the IC50 was found to be 28900 nM in experiment [6] and 2940 nM in experiment [7].
NALSVLDKIYTSPLC [Fel d 1 1 peptide, position 78, NALSVLDKIYTSPLC (Peptide ID 3324.1050)]: the IC50 in [4] was 575 nM; in experiment [5], 349 nM.
Consider DINVGFKAAVAAAAG [Poa p 5 peptide, position 56 (Peptide ID 3324.1571)], for which the IC50 in [8] was determined as 34 nM; in [2], 5410 nM.
For the molecule IFYDVFFAVANGNEL [Fel d 1 2 peptide, position 26, IFYDVFFAVANGNEL (Peptide ID 3324.1052)], the results for the IC50 in [4] and in experiment [5] were 89 nM and 242 nM, respectively.
For the molecule FTSLEYIEAAKWLLP [Sal k 1 1 peptide, position 321 (Peptide ID 3324.1589)], the IC50 in experiment [8] came to 1300 nM.
Consider AETCPIFYDVFFAVA [Fel d 1 2 peptide, position 21, AETCPIFYDVFFAVA (Peptide ID 3324.1056)], for which the results for the IC50 in experiment [4] and in [5] were 8.1 nM and 5.6 nM, respectively.
Consider QVAQYKALPVVLENA [Fel d 1 1 (46-60) peptide QVAQYKALPVVLENA, Peptide ID 3324.1051], for which the IC50 in [9] is 552 nM; in [10], 610 nM; in [11], 21400 nM; in experiment [12], 1600 nM.
Turning to ATPEAKFDSFVAAFT [Poa p 5 peptide, position 121, ATPEAKFD5FVAAFT as printed in Table 8 (Peptide ID 3324.1570)], the IC50 in experiment [6] was determined as 4850 nM; in [13], 2770 nM; in experiment [7], 3240 nM.
As for FKAAVAAAAGAPPAD [Poa p 5 peptide, position 61 (Peptide ID 3324.1575)], the IC50 in experiment [8] was determined as 793 nM; in experiment [1], 1380 nM; in experiment [2], 6780 nM; in experiment [3], 25700 nM.
Regarding DINVGFKAAVAAAAG [Poa p 5 peptide, position 56, DINVGFKAAVAAAAG (Peptide ID 3324.1571)], the IC50 stood at 20700 nM in experiment [6] and 295 nM in [7].
AETCPIFYDVFFAVA [Fel d 1 2 (21-35) peptide AETCPIFYDVFFAVA, Peptide ID 3324.1056] had an IC50 in [11] of 2100 nM.
With GSCWAFSGVAATESA [Der f 1 peptide, position 131, GSCWAFSGVAATESA (Peptide ID 3324.0670)], the IC50 in experiment [4] was found to be 9310 nM; in experiment [5] it was 14400 nM.
Regarding DAYVATLTEALRVIA [Lol p 5 1 peptide, position 151, DAYVATLTEALRVIA (Peptide ID 3324.1167)], the IC50 in [6] came out at 515 nM; in experiment [13], 4400 nM; in [7], 597 nM.
As to QKLMEDINVGFKAAV [Poa p 5 peptide, position 51 (Peptide ID 3324.1580)], the figures for the IC50 in [8], in [1] and in [3] were 1290 nM, 5210 nM and 8070 nM, respectively.
As for NGNELLLDLSLTKVN [Fel d 1 2 (36-50) peptide NGNELLLDLSLTKVN, Peptide ID 3324.1055], the figures for the IC50 in experiment [9], in experiment [10] and in experiment [11] were 2860 nM, 9370 nM and 8020 nM, respectively.
Take ATPEAKFDSFVAAFT [Poa p 5 peptide, position 121 (Peptide ID 3324.1570)]: the figures for the IC50 in experiment [1] and in experiment [2] were 910 nM and 8000 nM, respectively.
For the molecule AIVYYSMYGHIKKMA [Alt a 7 (6-20) peptide AIVYYSMYGHIKKMA, Peptide ID 3324.0085], the 50% inhibitory concentration (IC50) in [11] worked out at 6240 nM; in experiment [12], 3350 nM.
